Source: patent US20120135923A1 (IPSEN PHARMA S A S, published 2012)
Bridge positions count the residues as written; N and C are the ends. Square brackets hold non-standard residues; d marks the D form. Ends that are not written are not given here. 2Nal = N[C@@H](Cc1ccc2ccccc2c1)C(=O)O; d2Nal = N[C@H](Cc1ccc2ccccc2c1)C(=O)O; Bta = N[C@@H](Cc1csc2ccccc12)C(=O)O; Aic = NC1(C(=O)O)Cc2ccccc2C1; Pen = CC(C)(S)[C@H](N)C(=O)O; Ac6c = NC1(C(=O)O)CCCCC1; Nle = CCCC[C@H](N)C(=O)O; Ac3c = NC1(C(=O)O)CC1; GABA = NCCCC(=O)O; βAla = NCCC(=O)O

B1: Ac-D-Arg-c(Cys-His-D-Phe-Arg-Trp-Gaba-Pen)-NH2 (peptide)
peptide: Ac-[dR]CH[dF]RW[GABA][Pen]-NH2
modifications: disulfide 2-8
SMILES: CC(=O)N[C@H](CCCNC(=N)N)C(=O)N[C@H]1CSSC(C)(C)[C@@H](C(N)=O)NC(=O)CCCNC(=O)[C@H](Cc2c[nH]c3ccccc23)NC(=O)[C@H](CCCNC(=N)N)NC(=O)[C@@H](Cc2ccccc2)NC(=O)[C@H](Cc2c[nH]cn2)NC1=O
B2: Ac-c(Cys-D-Ala-His-D-Phe-Arg-2-Nal-Ala-Cys)-NH2 (peptide)
peptide: Ac-C[dA]H[dF]R[2Nal]AC-NH2
modifications: disulfide 1-8
SMILES: CC(=O)N[C@H]1CSSC[C@@H](C(N)=O)NC(=O)[C@H](C)NC(=O)[C@H](Cc2ccc3ccccc3c2)NC(=O)[C@H](CCCNC(=N)N)NC(=O)[C@@H](Cc2ccccc2)NC(=O)[C@H](Cc2c[nH]cn2)NC(=O)[C@@H](C)NC1=O
B3: Ac-Nle-c(Asp-D-Ala-His-D-Phe-Arg-Trp-Lys)-NH2 (peptide)
peptide: Ac-[Nle]D[dA]H[dF]RWK-NH2
modifications: lactam 2-8
SMILES: CCCC[C@H](NC(C)=O)C(=O)N[C@H]1CC(=O)NCCCC[C@@H](C(N)=O)NC(=O)[C@H](Cc2c[nH]c3ccccc23)NC(=O)[C@H](CCCNC(=N)N)NC(=O)[C@@H](Cc2ccccc2)NC(=O)[C@H](Cc2c[nH]cn2)NC(=O)[C@@H](C)NC1=O
B4: Ac-Arg-c(Cys-His-D-Phe-Arg-Trp-Gaba-Pen)-NH2 (peptide)
peptide: Ac-RCH[dF]RW[GABA][Pen]-NH2
modifications: disulfide 2-8
SMILES: CC(=O)N[C@@H](CCCNC(=N)N)C(=O)N[C@H]1CSSC(C)(C)[C@@H](C(N)=O)NC(=O)CCCNC(=O)[C@H](Cc2c[nH]c3ccccc23)NC(=O)[C@H](CCCNC(=N)N)NC(=O)[C@@H](Cc2ccccc2)NC(=O)[C@H](Cc2c[nH]cn2)NC1=O
B5: Ac-Nle-c(Cys-His-D-Phe-Arg-D-Trp-β-Ala-Cys)-NH2 (peptide)
peptide: Ac-[Nle]CH[dF]R[dW][βAla]C-NH2
modifications: disulfide 2-8
SMILES: CCCC[C@H](NC(C)=O)C(=O)N[C@H]1CSSC[C@@H](C(N)=O)NC(=O)CCNC(=O)[C@@H](Cc2c[nH]c3ccccc23)NC(=O)[C@H](CCCNC(=N)N)NC(=O)[C@@H](Cc2ccccc2)NC(=O)[C@H](Cc2c[nH]cn2)NC1=O
B6: Ac-Nle-c(Cys-D-Leu-His-D-Phe-Arg-Trp-Cys)-NH2 (peptide)
peptide: Ac-[Nle]C[dL]H[dF]RWC-NH2
modifications: disulfide 2-8
SMILES: CCCC[C@H](NC(C)=O)C(=O)N[C@H]1CSSC[C@@H](C(N)=O)NC(=O)[C@H](Cc2c[nH]c3ccccc23)NC(=O)[C@H](CCCNC(=N)N)NC(=O)[C@@H](Cc2ccccc2)NC(=O)[C@H](Cc2c[nH]cn2)NC(=O)[C@@H](CC(C)C)NC1=O
B7: Ac-Nle-c(Asp-D-Ala-His-D-Phe-Arg-Bal-Lys)-NH2 (peptide)
peptide: Ac-[Nle]D[dA]H[dF]R[Bta]K-NH2
modifications: lactam 2-8
SMILES: CCCC[C@H](NC(C)=O)C(=O)N[C@H]1CC(=O)NCCCC[C@@H](C(N)=O)NC(=O)[C@H](Cc2csc3ccccc23)NC(=O)[C@H](CCCNC(=N)N)NC(=O)[C@@H](Cc2ccccc2)NC(=O)[C@H](Cc2c[nH]cn2)NC(=O)[C@@H](C)NC1=O
B8: Ac-c(Cys-Glu-His-D-Phe-Arg-Trp-Ala-Cys)-NH2 (peptide)
peptide: Ac-CEH[dF]RWAC-NH2
modifications: disulfide 1-8
SMILES: CC(=O)N[C@H]1CSSC[C@@H](C(N)=O)NC(=O)[C@H](C)NC(=O)[C@H](Cc2c[nH]c3ccccc23)NC(=O)[C@H](CCCNC(=N)N)NC(=O)[C@@H](Cc2ccccc2)NC(=O)[C@H](Cc2c[nH]cn2)NC(=O)[C@H](CCC(=O)O)NC1=O
B9: Phe-c(Cys-His-D-Phe-Arg-Trp-Gaba-Cys)-NH2 (peptide)
peptide: FCH[dF]RW[GABA]C-NH2
modifications: disulfide 2-8; N-terminus assumed
SMILES: N=C(N)NCCC[C@@H]1NC(=O)[C@@H](Cc2ccccc2)NC(=O)[C@H](Cc2c[nH]cn2)NC(=O)[C@@H](NC(=O)[C@@H](N)Cc2ccccc2)CSSC[C@@H](C(N)=O)NC(=O)CCCNC(=O)[C@H](Cc2c[nH]c3ccccc23)NC1=O
B10: c[Hydantoin(C(O)-(Asp-Aic))-D-2-Nal-Arg-Trp-Lys]-NH2 (peptide)
peptide: D[Aic][d2Nal]RWK-NH2
modifications: lactam 1-6; also: hydantoin ring: N-terminal N of Asp1 and backbone N of residue 2 bridged by one C(O), bridge at N via C(O), other end not in the chain
B11: c[Hydantoin(C(O)-(Asp-A3c))-D-2-Nal-Arg-Trp-Lys]-NH2 (peptide)
peptide: D[Ac3c][d2Nal]RWK-NH2
modifications: lactam 1-6; also: hydantoin ring: N-terminal N of Asp1 and backbone N of residue 2 bridged by one C(O), bridge at N via C(O), other end not in the chain
B12: c[Hydantoin(C(O)-(Asp-A6c))-D-2-Nal-Arg-Trp-Lys]-NH2 (peptide)
peptide: D[Ac6c][d2Nal]RWK-NH2
modifications: lactam 1-6; also: hydantoin ring: N-terminal N of Asp1 and backbone N of residue 2 bridged by one C(O), bridge at N via C(O), other end not in the chain

target: T1, hMC1-R (human, UniProt Q01726 1-317); assay: ratio Ki hMC1-R / Ki hMC4-R, same assay
T1 construct: whole, on cells; Assayed as membranes of CHO-K1 cells expressing the receptor; also called hMC-R receptor subtype 1; melanocyte-specific receptor (MC1-R)
T1 sequence (Q01726 whole entry): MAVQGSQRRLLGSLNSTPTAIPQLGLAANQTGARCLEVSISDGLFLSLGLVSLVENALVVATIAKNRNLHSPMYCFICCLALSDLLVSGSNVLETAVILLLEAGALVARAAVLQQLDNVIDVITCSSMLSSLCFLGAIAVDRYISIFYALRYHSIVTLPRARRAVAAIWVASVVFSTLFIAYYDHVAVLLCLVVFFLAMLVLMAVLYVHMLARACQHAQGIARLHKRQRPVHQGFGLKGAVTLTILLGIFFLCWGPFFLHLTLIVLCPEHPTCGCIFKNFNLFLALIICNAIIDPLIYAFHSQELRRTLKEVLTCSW
Protocol: (§1) Cellular membranes used for the in vitro receptor binding assays were obtained from transgenic CHO-K1 cells stably expressing hMC-R receptor subtypes 1, 3, 4 or 5. […] The pellets were resuspended in the same buffer and centrifuged at 50,000 g for 10 minutes at approximately 4° C. The washed pellets containing the cellular membranes were stored at approximately −80° C.
(§2) Competitive inhibition of [¹²⁵I](Tyr²)-(Nle⁴-D-Phe⁷)α-MSH ([¹²⁵I]-NDP-α-MSH, Amersham Biosciences®) binding was carried out in polypropylene 96 well plates. Cell membranes (1-10 μg protein/well) prepared as described above were incubated in 50 mM Tris-HCl at pH 7.4 containing 0.2% bovine serum albumin (BSA), 5 mM MgCl₂, 1 mM CaCl₂ and 0.1 mg/mL bacitracin, with increasing concentrations of the test compound and 0.1-0.3 nM […] for approximately 90-120 minutes at approximately 37° C. Bound [¹²⁵I]-NDP-α-MSH ligand was separated from free [¹²⁵I]-NDP-α-MSH by filtration through GF/C glass fiber filter plates (Unifilter®; Packard) presoaked with 0.1% (w/v) polyethylenimine (PEI), using a Packard Filtermate® harvester. Filters were washed three times with 50 mM Tris-HCl at pH 7.4 at a temperature of approximately 0-4° C. and then assayed for radioactivity using a Packard Topcount® scintillation counter. Binding data were analyzed by computer-assisted non-linear regression analysis (XL fit; IDBS).

Ki hMC1-R/MC4-R	Binder
0.36	B1
0.41	Ac-[Nle]C[dA]H[dF]RWAC-NH2 (disulfide 2-9) [Ac-Nle-c(Cys-D-Ala-His-D-Phe-Arg-Trp-Ala-Cys)-NH2]
3.24	B2
0.12	Ac-FCH[dF]RW[GABA]C-NH2 (disulfide 2-8) [Ac-Phe-c(Cys-His-D-Phe-Arg-Trp-Gaba-Cys)-NH2]
0.26	B3
0.4	B4
0.16	B5
0.39	B6
0.08	B7
2.33	B8
2.06	Ac-C[dA]H[dF]RWAC-NH2 (disulfide 1-8) [Ac-c(Cys-D-Ala-His-D-Phe-Arg-Trp-Ala-Cys)-NH2]
0.04	B9

target: T2, human melanocortin receptor subtype 1 (hMC1-R) (human, UniProt Q01726 1-317); assay: [125I]-NDP-α-MSH competition, membranes
T2 construct: whole, on cells; membranes of CHO-K1 cells
T2 sequence (Q01726 whole entry): as above

Ki [nM]	Binder
9030	B10
15.6	GCEH[dF]RWC-NH2 (disulfide 2-8; also: hydantoin ring from C(O) with Gly1-Cys2) [c[Hydantoin(C(O)-(Gly-Cys))-Glu-His-D-Phe-Arg-Trp-Cys]-NH2]
7570	B11
2170	B12

target: T3, human melanocortin receptor subtype 3 (hMC3-R) (human, UniProt P41968 1-323); assay: [125I]-NDP-α-MSH competition, membranes
T3 construct: whole, on cells; membranes of CHO-K1 cells
T3 sequence (P41968 whole entry): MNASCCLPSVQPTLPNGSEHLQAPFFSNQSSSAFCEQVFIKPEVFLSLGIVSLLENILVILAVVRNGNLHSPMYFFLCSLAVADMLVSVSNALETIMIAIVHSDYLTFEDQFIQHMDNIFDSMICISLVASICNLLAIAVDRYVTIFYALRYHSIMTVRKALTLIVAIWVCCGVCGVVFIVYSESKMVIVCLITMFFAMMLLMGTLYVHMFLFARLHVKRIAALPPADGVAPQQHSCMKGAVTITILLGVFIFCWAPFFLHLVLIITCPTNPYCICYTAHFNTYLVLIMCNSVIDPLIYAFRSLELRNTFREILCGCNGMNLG

Ki [nM]	Binder
2630	B10
305	GCEH[dF]RWC-NH2 (disulfide 2-8; also: hydantoin ring from C(O) with Gly1-Cys2) [c[Hydantoin(C(O)-(Gly-Cys))-Glu-His-D-Phe-Arg-Trp-Cys]-NH2]
1920	B11
1480	B12

target: T4, human melanocortin receptor subtype 4 (hMC4-R) (human, UniProt P32245 1-332); assay: [125I]-NDP-α-MSH competition, membranes
T4 construct: whole, on cells; membranes of CHO-K1 cells
T4 sequence (P32245 whole entry): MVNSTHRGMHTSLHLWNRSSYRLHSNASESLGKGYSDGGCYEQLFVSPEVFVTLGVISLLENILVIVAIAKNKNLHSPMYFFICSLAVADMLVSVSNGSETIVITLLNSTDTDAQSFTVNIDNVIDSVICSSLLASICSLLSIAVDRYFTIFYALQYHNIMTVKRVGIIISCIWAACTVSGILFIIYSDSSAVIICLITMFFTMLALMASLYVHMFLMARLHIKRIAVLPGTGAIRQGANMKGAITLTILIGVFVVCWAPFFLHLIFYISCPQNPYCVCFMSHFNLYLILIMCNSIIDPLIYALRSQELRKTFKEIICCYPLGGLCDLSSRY

Ki [nM]	Binder
35.8	B10
8.92	GCEH[dF]RWC-NH2 (disulfide 2-8; also: hydantoin ring from C(O) with Gly1-Cys2) [c[Hydantoin(C(O)-(Gly-Cys))-Glu-His-D-Phe-Arg-Trp-Cys]-NH2]
420	B11
16.5	B12

target: T5, human melanocortin receptor subtype 5 (hMC5-R) (human, UniProt P33032 1-325); assay: [125I]-NDP-α-MSH competition, membranes
T5 construct: whole, on cells; membranes of CHO-K1 cells
T5 sequence (P33032 whole entry): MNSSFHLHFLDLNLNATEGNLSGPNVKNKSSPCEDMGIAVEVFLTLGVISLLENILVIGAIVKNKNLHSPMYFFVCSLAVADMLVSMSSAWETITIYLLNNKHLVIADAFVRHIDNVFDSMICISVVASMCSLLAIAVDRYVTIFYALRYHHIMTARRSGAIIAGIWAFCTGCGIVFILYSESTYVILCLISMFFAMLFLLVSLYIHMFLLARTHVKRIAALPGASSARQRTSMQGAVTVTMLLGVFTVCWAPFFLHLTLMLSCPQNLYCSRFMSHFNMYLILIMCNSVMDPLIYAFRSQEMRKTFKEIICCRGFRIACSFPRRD

Ki [nM]	Binder
1160	B10
3070	GCEH[dF]RWC-NH2 (disulfide 2-8; also: hydantoin ring from C(O) with Gly1-Cys2) [c[Hydantoin(C(O)-(Gly-Cys))-Glu-His-D-Phe-Arg-Trp-Cys]-NH2]
2880	B11
451	B12

target: T1, hMC1-R; assay: competition with [125I]-NDP-α-MSH, CHO-K1 membranes
Protocol: as §1, §2

Ki [nM]	Binder
3.93	B1
9.12	Ac-[Nle]C[dA]H[dF]RWAC-NH2 (disulfide 2-9) [Ac-Nle-c(Cys-D-Ala-His-D-Phe-Arg-Trp-Ala-Cys)-NH2]
132	B2
0.659	B3
1.81	B4
0.323	B5
1.6	B6
4.12	B7
111	B8
199	Ac-C[dA]H[dF]RWAC-NH2 (disulfide 1-8) [Ac-c(Cys-D-Ala-His-D-Phe-Arg-Trp-Ala-Cys)-NH2]
0.186	B9

target: T6, hMC3-R (human, UniProt P41968 1-323); assay: as above
T6 construct: whole, on cells; Assayed as membranes of CHO-K1 cells expressing the receptor; also called hMC-R receptor subtype 3; melacortin-3 (MC3-R)
T6 sequence (P41968 whole entry): as the sequence (P41968 whole entry) above
Protocol: as §1, §2

Ki [nM]	Binder
172	B1
1130	Ac-[Nle]C[dA]H[dF]RWAC-NH2 (disulfide 2-9) [Ac-Nle-c(Cys-D-Ala-His-D-Phe-Arg-Trp-Ala-Cys)-NH2]
4560	B2
98.9	B3
20.5	B4
14.1	B5
6.82	B6
445	B7
1710	B8
5990	Ac-C[dA]H[dF]RWAC-NH2 (disulfide 1-8) [Ac-c(Cys-D-Ala-His-D-Phe-Arg-Trp-Ala-Cys)-NH2]

target: T7, hMC4-R (human, UniProt P32245 1-332); assay: as above
T7 construct: whole, on cells; Assayed as membranes of CHO-K1 cells expressing the receptor; also called hMC-R receptor subtype 4; melanocortin-4 (MC4-R)
T7 sequence (P32245 whole entry): as the sequence (P32245 whole entry) above
Protocol: as §1, §2

Ki [nM]	Binder
11	B1
22.1	Ac-[Nle]C[dA]H[dF]RWAC-NH2 (disulfide 2-9) [Ac-Nle-c(Cys-D-Ala-His-D-Phe-Arg-Trp-Ala-Cys)-NH2]
40.7	B2
2.55	B3
4.57	B4
1.96	B5
4.13	B6
50.6	B7
47.7	B8
96.7	Ac-C[dA]H[dF]RWAC-NH2 (disulfide 1-8) [Ac-c(Cys-D-Ala-His-D-Phe-Arg-Trp-Ala-Cys)-NH2]
4.93	B9

target: T8, hMC5-R (human, UniProt P33032 1-325); assay: as above
T8 construct: whole, on cells; Assayed as membranes of CHO-K1 cells expressing the receptor; also called hMC-R receptor subtype 5; melanocortin-5 receptor (MC5-R)
T8 sequence (P33032 whole entry): as the sequence (P33032 whole entry) above
Protocol: as §1, §2

Ki [nM]	Binder
538	B1
2860	Ac-[Nle]C[dA]H[dF]RWAC-NH2 (disulfide 2-9) [Ac-Nle-c(Cys-D-Ala-His-D-Phe-Arg-Trp-Ala-Cys)-NH2]
8810	B2
4.19	B3
502	B4
24	B5
5.57	B6
4300	B7
694	B8
0.537	B9
